Experimental data reported in the supplement of paper PMC7877785.
± gives the uncertainty stated by the source.

Assay: self-splicing fitness, log relative to wild type (ln ratio); higher = more splicing; Tetrahymena group I intron in knt gene, E. coli kanamycin selection, DiMSum; sequences stand for … in CUCUCU…GGAGGGAAAAGUUAUCAGGCAUGCACCUGGUAGCUAGUCUUUAAACCAAUAGAUUGCAUCGGUUUAAAAGGCAAGACCGUCAAAUUGCGGGAAAGGGGUCAACAGCCGUUCAGUACCAAGUCUCAGGGGAAACUUUGAGAUGGCCUUGCAAAGGGUAUGGUAAUAAGCUGACGGACAUGGUCCUAACCACGCAGCCAAGUCCUAAGUCAACAGAUCUUCUGUUGAUAUGGAUGCAGUUCACAGACUAAAUGUCGGUCGGGGAAGAUGUAUUCUUCUCAUAAGAUAUAGUCGGACCUCUCCUUAAUGGGAGCUAGCGGAUGAAGUGAUGCAACACUGGAGCCGCUGGGAACUAAUUUGUAUGCGAAAGUAUAUUGAUUAGUUUUGGAGUACUCGUGGUCG
Summary of the method: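 Colonies from six replicate transformations of E. coli BL21(DE3) were pooled and amplicon-sequenced on an Illumina HiSeq 2500. The library placed an intron with all eight P1ex-region nucleotides randomised inside the knt kanamycin-resistance gene on pET-22b(+), and cells grew overnight at 37°C or 30°C on LB agar with or without 25 μg/mL kanamycin (plus 100 μg/mL carbenicillin, 50 μM IPTG, 0.2% rhamnose). Fitness is the DiMSum error-weighted combination of wild-type-normalised replicate fold changes, kanamycin versus none.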

Row | Sequence | self-splicing fitness (ln) (30 °C) | self-splicing fitness (ln) (37 °C)
1 | CCGGAGCAAUAUUACGCGAU | -3.82 ± 0.27 | -2.62 ± 0.33
2 | UGGUAGCAAUAUUACGAUGA | -0.831 ± 0.13 | -0.597 ± 0.19
3 | UAGCAGCAAUAUUACGGGGG | -3.44 ± 0.29 | -2.98 ± 0.29
4 | ACGUAGCAAUAUUACGUCUA | -0.802 ± 0.27 | -1.22 ± 0.18
5 | AAACAGCAAUAUUACGAAGU | -3.41 ± 0.2 | -2.21 ± 0.17
6 | ACAUAGCAAUAUUACGGUGA | -0.929 ± 0.066 | -0.247 ± 0.086
7 | UGACAGCAAUAUUACGAGCC | -3.37 ± 0.28 | -2.24 ± 0.38
8 | AAUAAGCAAUAUUACGUUCA | -0.963 ± 0.084 | -0.348 ± 0.12
9 | CAGCAGCAAUAUUACGCCGG | -0.792 ± 0.09 | -0.31 ± 0.098
10 | GUGUAGCAAUAUUACGCAGU | -3.25 ± 0.21 | -2.46 ± 0.23
11 | GAGCAGCAAUAUUACGCUUU | -1.94 ± 0.18 | -2.5 ± 0.26
12 | CGGAAGCAAUAUUACGGCAG | -0.0767 ± 0.11 | 0.445 ± 0.13
13 | UAGUAGCAAUAUUACGCUCC | -2.38 ± 0.45 | -0.239 ± 0.45
14 | UACAAGCAAUAUUACGACAU | -1.474 ± 0.012 | -0.59 ± 0.032
15 | UAUGAGCAAUAUUACGUAAU | -2.35 ± 0.17 | -2.34 ± 0.35
16 | CACUAGCAAUAUUACGUAAA | -3.48 ± 0.18 | -2.61 ± 0.2
17 | UAUUAGCAAUAUUACGCUUU | -2.01 ± 0.16 | -0.435 ± 0.18
18 | UGUCAGCAAUAUUACGAUAU | -1.6 ± 0.13 | -0.448 ± 0.13
19 | UCCAAGCAAUAUUACGAUAG | -2.81 ± 0.13 | -2.98 ± 0.21
20 | GGGGAGCAAUAUUACGGCAC | -1.39 ± 0.18 | -1.06 ± 0.3
21 | ACCAAGCAAUAUUACGCUUC | -3.27 ± 0.15 | -1.71 ± 0.12
22 | GCUCAGCAAUAUUACGCGCC | -2.16 ± 0.14 | -1.92 ± 0.17
23 | UGCGAGCAAUAUUACGGUGG | -3.04 ± 0.23 | -3.1 ± 0.33
24 | CGCCAGCAAUAUUACGAUAG | 0.428 ± 0.062 | 0.155 ± 0.081
25 | AGUUAGCAAUAUUACGCCAA | – | -1.58 ± 0.43

Row | Sequence | self-splicing fitness (ln) (30 °C) | self-splicing fitness (ln) (37 °C)
26 | UGUUAGCAAUAUUACGUCGG | -0.97 ± 0.1 | -0.8 ± 0.17
27 | UUAUAGCAAUAUUACGUCGU | -3.1 ± 0.3 | –
28 | GAUCAGCAAUAUUACGAAUU | -1.21 ± 0.065 | -0.655 ± 0.083
29 | AGGGAGCAAUAUUACGGUCU | -1.67 ± 0.21 | -0.696 ± 0.21
30 | AUGGAGCAAUAUUACGCUUC | – | -1.28 ± 0.32
31 | GAAUAGCAAUAUUACGAUUU | -1.74 ± 0.12 | -0.649 ± 0.11
32 | AGCUAGCAAUAUUACGCGGC | -3.24 ± 0.32 | -1.99 ± 0.38
33 | AACCAGCAAUAUUACGCGCC | -0.668 ± 0.1 | -0.521 ± 0.12
34 | GCUUAGCAAUAUUACGGUAA | -2.18 ± 0.14 | -1.54 ± 0.13
35 | CAGAAGCAAUAUUACGGCCC | -2.98 ± 0.44 | –
36 | GCCGAGCAAUAUUACGAAGU | -2.51 ± 0.35 | -1.14 ± 0.24
37 | GGGGAGCAAUAUUACGAUUU | -2.01 ± 0.16 | -0.868 ± 0.16
38 | AAGUAGCAAUAUUACGUUAU | -1.93 ± 0.13 | -0.642 ± 0.11
39 | ACCAAGCAAUAUUACGUUGA | -2.83 ± 0.12 | -2.01 ± 0.11
40 | CGUAAGCAAUAUUACGCUCU | -0.698 ± 0.17 | -1.35 ± 0.2
41 | CUCAAGCAAUAUUACGCCCU | -3.13 ± 0.44 | -1.36 ± 0.36
42 | CGAGAGCAAUAUUACGGCAG | -2 ± 0.18 | -1.33 ± 0.22
43 | AUAUAGCAAUAUUACGCCUG | -2.24 ± 0.23 | -1.6 ± 0.24
44 | UCCCAGCAAUAUUACGUAAC | -2.45 ± 0.11 | -1.61 ± 0.17
45 | GUCUAGCAAUAUUACGGAUA | -1.26 ± 0.099 | -0.0363 ± 0.11
46 | UAUUAGCAAUAUUACGUAUG | -1.65 ± 0.15 | -0.344 ± 0.17
47 | CAUUAGCAAUAUUACGCGAG | -1.52 ± 0.11 | -0.923 ± 0.095
48 | AUCUAGCAAUAUUACGGCAC | -1.5 ± 0.13 | -0.819 ± 0.17
49 | UGUAAGCAAUAUUACGUACC | -1.07 ± 0.34 | -0.216 ± 0.26
